The assay has as its target T1, phosphofructokinase beta subunit Pfk2p (S. cerevisiae, UniProt P16862 1-959).
T1 sequence (looked up): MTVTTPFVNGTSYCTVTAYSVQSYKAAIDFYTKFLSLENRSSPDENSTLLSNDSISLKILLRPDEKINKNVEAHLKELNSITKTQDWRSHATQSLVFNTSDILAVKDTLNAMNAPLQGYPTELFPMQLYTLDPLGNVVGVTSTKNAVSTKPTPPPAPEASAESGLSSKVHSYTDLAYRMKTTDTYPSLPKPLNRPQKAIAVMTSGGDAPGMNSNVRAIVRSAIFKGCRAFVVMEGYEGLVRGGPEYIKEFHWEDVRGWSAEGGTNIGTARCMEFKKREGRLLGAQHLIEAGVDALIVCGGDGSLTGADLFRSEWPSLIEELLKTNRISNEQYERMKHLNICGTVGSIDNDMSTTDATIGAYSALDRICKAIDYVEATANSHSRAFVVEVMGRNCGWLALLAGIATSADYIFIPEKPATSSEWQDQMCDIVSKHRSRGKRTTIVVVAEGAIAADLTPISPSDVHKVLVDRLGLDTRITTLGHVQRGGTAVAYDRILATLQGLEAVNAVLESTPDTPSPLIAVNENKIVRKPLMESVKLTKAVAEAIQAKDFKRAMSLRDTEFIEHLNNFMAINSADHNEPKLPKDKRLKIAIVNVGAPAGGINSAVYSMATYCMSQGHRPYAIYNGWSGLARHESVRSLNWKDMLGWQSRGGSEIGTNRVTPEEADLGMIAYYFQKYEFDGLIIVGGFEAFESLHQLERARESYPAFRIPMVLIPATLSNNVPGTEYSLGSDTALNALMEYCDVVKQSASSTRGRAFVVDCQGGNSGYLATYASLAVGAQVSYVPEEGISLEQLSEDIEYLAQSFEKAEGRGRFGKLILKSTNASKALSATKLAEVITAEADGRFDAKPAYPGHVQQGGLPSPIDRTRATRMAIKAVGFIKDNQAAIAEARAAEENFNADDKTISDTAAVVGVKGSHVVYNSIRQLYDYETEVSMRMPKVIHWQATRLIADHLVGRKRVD
As to the kind of experiment: cell-based or functional assay.

B1: phosphofructokinase alpha subunit Pfk1p (enzyme, S. cerevisiae, UniProt P16861 1-987, looked up)
chain: MQSQDSCYGVAFRSIITNDEALFKKTIHFYHTLGFATVKDFNKFKHGENSLLSSGTSQDSLREVWLESFKLSEVDASGFRIPQQEATNKAQSQGALLKIRLVMSAPIDETFDTNETATITYFSTDLNKIVEKFPKQAEKLSDTLVFLKDPMGNNITFSGLANATDSAPTSKDAFLEATSEDEIISRASSDASDLLRQTLGSSQKKKKIAVMTSGGDSPGMNAAVRAVVRTGIHFGCDVFAVYEGYEGLLRGGKYLKKMAWEDVRGWLSEGGTLIGTARSMEFRKREGRRQAAGNLISQGIDALVVCGGDGSLTGADLFRHEWPSLVDELVAEGRFTKEEVAPYKNLSIVGLVGSIDNDMSGTDSTIGAYSALERICEMVDYIDATAKSHSRAFVVEVMGRHCGWLALMAGIATGADYIFIPERAVPHGKWQDELKEVCQRHRSKGRRNNTIIVAEGALDDQLNPVTANDVKDALIELGLDTKVTILGHVQRGGTAVAHDRWLATLQGVDAVKAVLEFTPETPSPLIGILENKIIRMPLVESVKLTKSVATAIENKDFDKAISLRDTEFIELYENFLSTTVKDDGSELLPVSDRLNIGIVHVGAPSAALNAATRAATLYCLSHGHKPYAIMNGFSGLIQTGEVKELSWIDVENWHNLGGSEIGTNRSVASEDLGTIAYYFQKNKLDGLIILGGFEGFRSLKQLRDGRTQHPIFNIPMCLIPATVSNNVPGTEYSLGVDTCLNALVNYTDDIKQSASATRRRVFVCEVQGGHSGYIASFTGLITGAVSVYTPEKKIDLASIREDITLLKENFRHDKGENRNGKLLVRNEQASSVYSTQLLADIISEASKGKFGVRTAIPGHVQQGGVPSSKDRVTASRFAVKCIKFIEQWNKKNEASPNTDAKVLRFKFDTHGEKVPTVEHEDDSAAVICVNGSHVSFKPIANLWENETNVELRKGFEVHWAEYNKIGDILSGRLKLRAEVAALAAENK
Take B1: the “kcat of phosphofructokinase, Pfk1p:Pfk2p co-expressed and co-purified (spectrophotometric coupled assay, 30 °C)” value came out at 210 s⁻¹.

Source of the values: article PMC3764422, “A model of yeast glycolysis based on a consistent kinetic characterisation of all its enzymes” (Febs Letters, 2013).
